Assays:
[1] = target: HLA A2 on RMA-S/A2 cells (human); assay: BB7.2 staining of RMA-S/A2 cells without peptide (peptide-free control); FIG 1(i)
[2] = target: HLA A2 on RMA-S/A2 cells (human); assay: BB7.2 staining of RMA-S/A2 cells without peptide (peptide-free control); FIG 2(i)
[3] = target: HLA A2 on RMA-S/A2 cells (human); assay: BB7.2 staining of RMA-S/A2 cells without peptide (peptide-free control); FIG 3(i)

With “anti-A2 specific BB7.2 monoclonal antibody” the Mean 2 [1] was 380, the Δ Mean [1] was 193 and the Mean 2 [2] was 311. It also gave a Δ Mean [2] of 154, a Mean 2 [3] of 282 and a Δ Mean [3] of 151.

— patent US20050152926A1
